{"source": "paper PMC9121323", "about": "“Using fluorescence anisotropy to monitor chaperone dispersal of RNA-binding protein condensates”", "binders": {"B1": {"name": "Fluorescein-A19 RNA (ssRNA)", "RNA": "AAAAAAAAAAAAAAAAAAA"}}, "molecular_target": "Pab1 monomer (poly(A)-binding protein) (Saccharomyces cerevisiae, UniProt P04147 1-577)", "sequence (P04147 whole entry)": "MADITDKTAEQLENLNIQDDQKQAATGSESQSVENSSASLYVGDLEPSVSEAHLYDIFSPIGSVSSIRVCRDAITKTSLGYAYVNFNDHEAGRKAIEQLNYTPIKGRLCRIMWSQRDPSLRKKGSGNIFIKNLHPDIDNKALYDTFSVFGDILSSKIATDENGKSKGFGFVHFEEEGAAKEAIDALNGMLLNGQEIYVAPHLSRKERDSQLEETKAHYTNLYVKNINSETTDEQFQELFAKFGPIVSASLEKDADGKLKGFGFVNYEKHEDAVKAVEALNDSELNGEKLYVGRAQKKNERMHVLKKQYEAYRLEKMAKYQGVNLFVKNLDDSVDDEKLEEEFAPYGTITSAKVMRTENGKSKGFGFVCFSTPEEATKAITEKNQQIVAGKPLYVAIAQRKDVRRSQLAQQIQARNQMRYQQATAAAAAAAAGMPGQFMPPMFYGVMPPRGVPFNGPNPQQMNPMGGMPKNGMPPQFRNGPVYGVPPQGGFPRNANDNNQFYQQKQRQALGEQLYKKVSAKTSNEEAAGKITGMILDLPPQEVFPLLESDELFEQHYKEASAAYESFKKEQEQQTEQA", "experiment": "fluorescence anisotropy; monomer calibration, titration regime; Kd cannot be determined; 1x disaggregation buffer (composition not in the material), 30 C, 15 uL samples, fluorescein ex/em 485/535 nm; 0.2 uM A19 RNA used for gain setting", "details": "protein: recombinant; tags: 8xHis-TEV site tag, removed by TEV protease; label: 5' 6-FAM; single strand", "data": [{"binder": "B1", "values": [{"measurement": "binding result", "result": "binds"}]}]}
